The source of these data is patent publication US20210340273A1 (INHLBRX, published 2021).

Experiment [1] addresses T1, human 5T4 (trophoblast glycoprotein), endogenous on the cell surface (human, UniProt Q13641 32-420).
T1 construct: also called TPBG; 5T4 oncofetal antigen
T1 sequence: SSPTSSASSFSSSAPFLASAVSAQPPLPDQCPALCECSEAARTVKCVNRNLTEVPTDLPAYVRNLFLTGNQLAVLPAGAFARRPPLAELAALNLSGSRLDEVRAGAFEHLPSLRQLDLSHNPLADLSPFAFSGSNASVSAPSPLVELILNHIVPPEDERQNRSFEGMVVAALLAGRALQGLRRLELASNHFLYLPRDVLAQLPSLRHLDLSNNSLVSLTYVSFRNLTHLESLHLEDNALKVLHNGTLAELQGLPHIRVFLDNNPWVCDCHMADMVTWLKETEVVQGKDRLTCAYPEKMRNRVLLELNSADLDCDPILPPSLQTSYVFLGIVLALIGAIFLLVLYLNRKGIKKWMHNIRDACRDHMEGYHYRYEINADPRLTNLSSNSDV
As to the kind of experiment: flow cytometry, sdAb-Fc on 5T4 expressing T47D cells. In general terms: In flow cytometry, cells or beads pass a laser one at a time.

For experiment [2], the target named is T1, human 5T4 (trophoblast glycoprotein), …. As to the kind of experiment: flow cytometry (FL4H median), sdAb-Fc titrated on 5T4-positive T47D cells. As to the method:
Specificity and relative affinity were assessed for purified sdAb-Fcs on 5T4-expressing cells. Binding of 5T4-sdAb-Fc fusion proteins was assessed by flow cytometry using 5T4-expressing cells. A titration series of the fusion protein was incubated with the 5T4-expressing cell lines (approximately 2.5×10⁴ to 5×10⁴ cells/well) for 30 minutes at 4 degrees Celsius in FACS Buffer (PBS 1% BSA, 0.1% NaN₃ pH 7.4) in 96 well plates. Following three wash steps in FACS buffer, an APC-conjugated anti-human Fcγ specific secondary antibody (Jackson ImmunoResearch) was added and incubated for 30 minutes at 4 degrees Celsius. Following three additional wash steps in FACS buffer bound antibody was detected via flow cytometry (IQue Intellicyte).
Humanized variant of the 5T4 sdAbs were tested for their ability to bind 5T4 expressing cells substantially as described in Example 2, and binding was compared to the parental sdAb. 5T4 expressing T47D cells were used in these studies. Results are shown in FIGS. 2A-2F, which confirm binding of the humanized variants. In some cases, binding was increased compared to the parental sdAb.

B1: hz16G10v7 sdAb-Fc (Fc fusion)
chain: EVQLVESGGGEVQPGGSLRLSCAASGRPFSSSAMGWFRQAPGKERETVAAVSRNTGSSYYAESVKGRFTISRDNAKNTVYLQMSSLRAEDTAVYYCAARSAAYSRSSETYTEKHDYTYWGQGTLVTVKP
notes: Humanized variant of 16G10, linked to a human Fc; not shown: human Fc
For B1, the binding result in experiment [1] is on record as “binds”.

B2: hz16G10v10 sdAb-Fc (Fc fusion)
chain: EVQLVESGGGEVQPGGSLRLSCAASGRPFSSSAMGWFRQAPGKERETVAAVSRNAGSSYYADFVKGRFTISRDNAKNTVYLQMSSLRAEDTAVYYCAARSAAYSRSSETYTEKHDYTYWGQGTLVTVKP
notes: as for B1
For B2, the binding result in experiment [1] is given as “binds”.

B3: hz14B5v2 sdAb-Fc (Fc fusion)
chain: EVQLVESGGGEVQPGGSLRLSCAASERPFGTYAMGWFRQAPGKERDLVAAVSRNGGASQYAESVKGRFTISRDNAKNTLYLQMSSLRAEDTAVYYCAARSAAYSRSSEVYTGKDEYYYWGQGTLVTVKP
notes: Humanized variant of 14B5, linked to a human Fc; not shown: human Fc
For B3, in experiment [1], the binding result was “binds”.

B4: hz14B5v15 sdAb-Fc (Fc fusion)
chain: EVQLVESGGGEVQPGGSLRLSCAASERPFGTYAMGWFRQAPGKERDLVAAVSRNAGASYYAESVKGRFTISRDNAKNTMYLQMSSLRAEDTAVYYCAARSAAYSRSSEVYTGKDEYYYWGQGTLVTVKP
notes: as for B3
With B4, the EC50 (read off the curve) (commonly the concentration giving half of the maximal effect) in experiment [2] was ~2 nM.

B5: hz14B5v11 sdAb-Fc (Fc fusion)
chain: EVQLVESGGGEVQAGDSLTLSCAVSERPFGTYAMGWFRQAPGRERDLVAAVSRNAGASQYAESVKGRFTISRDNAKNTMYLQMSSLRAEDTAVYYCAARSAAYSRSSEVYTGKDEYYYWGQGTLVTVKP
notes: Humanized variant of 14B5, linked to a human Fc; also called hz14B511; not shown: human Fc
As for B5, the “EC50 (read off the curve)” value in experiment [2] is ~2 nM.

B6: hz14B5v20 sdAb-Fc (Fc fusion)
chain: EVQLVESGGGEVQPGGSLRLSCAASGRPFSSYAMGWFRQAPGKERDLVAAVSRNAGASYYAESVKGRFTISRDNAKNTVYLQMSSLRAEDTAVYYCAARSAAYSRSSEVYTGKDEYYYWGQGTLVTVKP
notes: as for B3
With B6, the binding result in experiment [1] is reported as “binds”.

B7: hz14B5v12 sdAb-Fc (Fc fusion)
chain: EVQLVESGGGEVQPGGSLRLSCAASERPFGTYAMGWFRQAPGKERDLVAAVSRNAGASQYGESVKGRFSISRDNIKNTMYLQMSSLKPEDTAVYYCAARSAAYSRSSEVYTGKDEYYYWGQGTLVTVKP
notes: as for B3
Take B7: the “EC50 (read off the curve)” value in experiment [2] is ~2 nM.

B8: hz14B5v19 sdAb-Fc (Fc fusion)
chain: EVQLVESGGGEVQPGGSLRLSCAASGRPFGTYAMGWFRQAPGKERDLVAAVSRNAGASYYAESVKGRFTISRDNAKNTVYLQMSSLRAEDTAVYYCAARSAAYSRSSEVYTGKDEYYYWGQGTLVTVKP
notes: as for B3
B8: the binding result in experiment [1] is recorded as “binds”.

B9: hz14B5v13 sdAb-Fc (Fc fusion)
chain: EVQLVESGGGEVQPGGSLRLSCAASERPFGTYAMGWFRQAPGKERETVAAVSRNAGASQYAESVKGRFTISRDNAKNTMYLQMSSLRAEDTAVYYCAARSAAYSRSSEVYTGKDEYYYWGQGTLVTVKP
notes: as for B3
On to B9, for which the “EC50 (read off the curve)” value in experiment [2] is ~2 nM.

B10: hz14B5v14 sdAb-Fc (Fc fusion)
chain: EVQLVESGGGEVQPGGSLRLSCAASERPFGTYAMGWFRQAPGKEREFVAAVSRNAGASQYAESVKGRFTISRDNAKNTMYLQMSSLRAEDTAVYYCAARSAAYSRSSEVYTGKDEYYYWGQGTLVTVKP
notes: as for B3
As for B10, the “EC50 (read off the curve)” value in experiment [2] was ~2 nM.

B11: hz14B5v16 sdAb-Fc (Fc fusion)
chain: EVQLVESGGGEVQPGGSLRLSCAASERPFGTYAMGWFRQAPGKERDLVAAVSRNAGASQYGEFVKGRFTISRDNAKNTMYLQMSSLRAEDTAVYYCAARSAAYSRSSEVYTGKDEYYYWGQGTLVTVKP
notes: as for B3
In the case of B11, the “EC50 (read off the curve)” value in experiment [2] was ~2 nM.

B12: hz14B5v18 sdAb-Fc (Fc fusion)
chain: EVQLVESGGGEVQPGGSLRLSCAASERPFSSYAMGWFRQAPGKERDLVAAVSRNAGASYYAESVKGRFTISRDNAKNTVYLQMSSLRAEDTAVYYCAARSAAYSRSSEVYTGKDEYYYWGQGTLVTVKP
notes: as for B3
In the case of B12, the binding result in experiment [1] is “binds”.
